Here are results for twelve substances from patent US8735085B2, “Method for diagnosing diseases using a protein or degradation product based on half-life” (Becton, Dickinson and Company, priority 2007, dated 2014).

Data set [1] is described as follows: Time-course stability of spiked isotope-labeled (AQUA) peptides in serum and plasma samples, MALDI-TOF MS, first-order fit. Type of data set: in vitro ADME, human. The settings on record: for T1/2 (h) Citrate / T1/2 (h) EDTA / T1/2 (h) Heparin: plasma. The text has this:
Methods of determining the half-lives of parent peptides may be determined by a process, which includes by example first spiking the peptide into one or more collection vehicles such as blood collection tubes comprising samples of biological fluid. In some embodiments, the collection vehicle is a swab. As described in an example disclosed herein, commercially available blood collection tubes sampled for determining half-lives included P100, EDTA, citrate, or heparin blood collection containers. The peak intensities of the peptide in each sample are measured at various points in time. […] Accordingly, a line may be constructed for each sample. The slope of the line (−kobs), representing the kinetic rate of the first-order degradation, may be used to compute a half-life value. That is, a kinetic rate constant can be determined by fitting the data with: Ln(I)=−kobs t+C, where I is the peak intensity, or the peak area, t is the incubation time period in the study, C is a constant, and kobs is the observed (or apparent) rate constant. The half-life of the peptide is determined by t1/2=Ln(2)/kobs.
A direct test for stability of a peptide biomarker in a collected blood sample was carried out by monitoring its change during a time-course incubation. It was discovered that the spiked peptides themselves are subject to preanalytical degradation, and thus the spiked peptides became our focus for studying the relative instability of peptides in various blood samples. The stability of AQUA FPA was tested by adding it into either a serum or plasma sample (either BD P100, EDTA, citrate, or heparin plasma) collected from a single venipuncture, or a pooled serum or plasma sample from three healthy individuals. After the spiked sample was incubated for specified periods of time, the peptides were measured by MALDI-TOF MS.
Human blood from healthy individuals was directly drawn into evacuated tubes to obtain serum and plasma samples, as described previously (20). Briefly, serum tubes (BD product #366430) were placed at room temperature (r.t., approx. 24° C.) to clot for 60 min after the collection of the blood, and then centrifuged at 2,500×g for 15 min. at room temperature. Plasma tubes, including citrate tube (BD product #369714), heparin tube (BD product #367886), EDTA tube (BD product #367525), and BD P100 tube (BD product #366456), were spun immediately (within 10 min. after blood was drawn), for 15 min at 2,500×g, and at room temperature to minimize the handling condition and to prevent possible platelet activation. Both plasma and serum samples were pipetted out of the blood-collection tubes into Eppendorf tubes and were frozen within 15 minutes at −80° C. until use. With these optimized handling processes, full acquisition and processing time was minimized to approximately 30 minutes for plasma and 90 minutes for serum.
Isotopically labeled peptides were purchased from Sigma-Genosys (The Woodlands, Tex.). All peptides were synthesized with one stable isotopic amino acid residue, either L-Arginine-13C6 15N4, or L-Phenylalanine-13C9 15N1, with mass of 10 higher than its natural counterpart. The quality of each peptide was verified by HPLC, MALDI-TOF MS (FIG. 6), and amino acid analysis by the vendor with purity higher than 98%. […] The peptides were diluted with relevant solvents to make stocks of 400 fmol/μL for spiking experiments.
The frozen serum and plasma were thawed (once only) in a room temperature water bath for approximately 5 minutes, in order to minimize the dwell time by temperature exposure of the samples. Soluble AQUA peptide (50 μL in water) was spiked into a thawed serum or plasma sample (450 μL), resulting in a final concentration of 40 fmol/μL. The samples were incubated at room temperature. A 45-μL aliquot was withdrawn at each specified time, and quenched by adding 5 μL of 2% TFA solution. […]

Data set [2] is described as follows: Sequential multi-step reaction (SMSR) kinetic modeling of FPA and its fragments in pooled heparin plasma. The format is in vitro ADME, human. The settings on record: for apparent rate constants of the sequential reactions (k1-k5, truncation of the peptide) / half-lives: heparin plasma pooled from three healthy individuals; for apparent rate constants of the sequential reactions (k1-k5, truncation of the peptide): first-order SMSR simulation; for half-lives: four replicates, first-order SMSR; for T1/2 (h) in Heparin: SMSR model; for incubation time at which the truncated daughter peptide was detected: AQUA FPA spiked in heparinized plasma. On the procedure:
Determining half-lives of the degradation products of the peptide, however, entails further modeling and calculations. For examples, sequential multi-step reaction (SMSR) model may be used. Particularly, the half-life of each daughter peptide (e.g., FPA-1, FPA-2, FPA-3, etc.) is determined using information related to one or more of its parent peptides as well as the measured behavior of the daughter peptides creation and further degradation. Accordingly, as represented below, the peptide FPA, referred to as “a” and having a kinetic rate constant k1, is used to determine the half-life of […], referred to as “b” and having a kinetic rate constant k2, which is used to determine the half-life of FPA-2, referred to as “c” and having a kinetic rate constant of k3, and so on.
Accordingly, kj is the kinetic rate constant of step reaction j. Ii is the measured signal (i.e., the peak intensity in MALDI-TOF MS) of peptide i. For example, measured intensities of each of the degradation products of the peptide over a 4 hour time span may be seen in FIG. 3. The peak intensity of, for example, FPA-4, occurs at 2 hours, where is measures 1216.670 m/z. A0 is the initial peak intensity of the parent peptide at time 0. Since Ii=K′iCi+I0, and I0=0 after baseline subtraction, then Ii=K′iCi or Ci=KiIi (1), where
Such calculations are performed for different points in time (i.e., different values of t), so as to plot the varying intensities of each degradation product against the reaction time, as shown in FIG. 4b. The rate constant of each step reaction, kj, can be computed by simulation of the equations (2b)-(6b). Then, the half-lives for each degradation product may be calculated by the equation t1/2=Ln(2)/kj.
For determining kinetic rate constants in a complex sequential reaction observed in this study, analytical solutions were derived from, a first order sequential multi-step reaction (SMSR), as explained above in the discussion concerning equations (1)-(6), (2a)-(6a), and (2b)-(6b). MATLAB (Version 7.0, Mathworks) was employed to numerically simulate this model with the experimental data, and reaction rate constants were then determined in the sequential pattern following the chain reaction sequences. The modeling process was optimized to achieve a best fit to R^2 (goodness-of-fit) calculation.
The observed decrease of the spiked AQUA FPA peptide is caused by the intrinsic amino-peptidase activity (9, 15, 20, 33) as its six fragments, sequentially truncated from the amino terminus, can be detected during the incubation (FIG. 3, FIG. 8). The process was easily observed in heparinized plasma, since the relative instability in this sample facilitated detection of the various truncated peptides within a reasonable experimental time frame (FIG. 3). […] During further incubation, smaller daughter peptides were detected: FPA-3 at 30 min, FPA-4 at one hour, and both FPA-5 and FPA-6 at two hours (FIG. 3, FIG. 8). None of these peptides was detected after eight-hour incubation.
The measurement of the degradation products was sufficiently unambiguous as to allow definition of a kinetic model of the degradation process. To determine the rate constants of the sequential reaction, the fragments of FPA: FPA-1, FPA-2, FPA-3, FPA-4 (FIG. 3), were measured in heparin plasma pooled from three healthy individuals with four replicates, and the average of peak intensities were modeled according to a first-order SMSR (FIG. 4). Simulation of the peak intensities of time-course MS (FIG. 4B) gave apparent rate constants of the sequential reactions: k1=2.1, k2=0.29, k3=1.96, k4=1.6, and k5=0.04 h^−1 for the first five step truncations (FIG. 4A), with goodness-of-fit (R^2) of 0.84, 0.78, 0.77, 0.87, and 0.76, respectively. Accordingly, the half-lives of FPA, FPA-1, FPA-2, FPA-3, and FPA-4 are 0.29, 2.1, 0.31, 0.38, and 15.2 hours, respectively (FIG. 4A). […]

Like-named read-outs stand apart in the source and are kept apart here. No end group written: not given here.

Take “ADSGEGDFLAEGGGVR (listed as Homo sapiens) [FPA]”: in data set [1], the “detectable up until a period of time after collection” value is 12 to 48 h, the “detection of peak after incubation” value was “still easily detected at 48 hours” and the “time until undetectable after collection” value is reported as “undetectable in less than two hours”. Besides, in data set [1] (human), the “T1/2 (h) Citrate” value is under 0.1 h, the “T1/2 (h) EDTA” value is 3.51 ± 0.05 h and the “T1/2 (h) Heparin” value was determined as 0.55 ± 0.02 h. In data set [1] (human, serum), the “T1/2 (h) Serum” value is listed as 0.30 ± 0.01 h and the “half-life in serum (too short to be measured)” value is listed as “less than 15 min”. In data set [2], the “apparent rate constants of the sequential reactions (k1-k5, truncation of the peptide)” value (from here on “apparent rate constants”) is 2.1 h⁻¹ and the half-lives stood at 0.29 h. Besides, in data set [2] (heparin plasma), the “T1/2 (h) in Heparin” value is given as 0.29 h.

As for BNP: brain natriuretic peptide, in data set [1], the “peptidase-induced degradation of isotopic labeled peptide” value (from here on “peptidase-induced degradation”) is on record as “instability has been observed”.

Regarding “DFLAEGGGVR (listed as Homo sapiens) [FPA-6]”, the “incubation time at which the truncated daughter peptide was detected” value (“incubation time” below) in data set [2] is recorded as “at two hours”.

“DSGEGDFLAEGGGVR (listed as Homo sapiens) [FPA-1]”: in data set [2], the “incubation time” value is on record as “Time 0”; the “apparent rate constants” value is 0.29 h⁻¹; the half-lives was 2.1 h. In addition, in data set [2] (heparin plasma), the “enhanced half-life compared to the parental FPA” value is reported as 7 fold and the “T1/2 (h) in Heparin” value amounted to 2.1 h.

“EGDFLAEGGGVR (listed as Homo sapiens) [FPA-4]”: in data set [2], the “incubation time” value is “at one hour”; the “apparent rate constants” value is 0.04 h⁻¹; the half-lives was found to be 15.2 h. Moreover, in data set [2] (heparin plasma), the “enhanced half-life compared to the parental FPA” value came to 52 fold and the “T1/2 (h) in Heparin” value was 15.2 h. The “time at which the peak intensity occurs” value in data set [2] (heparin plasma, 4 hour time span, FIG. 3) is 2 h.

In the case of “GDFLAEGGGVR (listed as Homo sapiens) [FPA-5]”, the “incubation time” value in data set [2] is “at two hours”.

Take “GEGDFLAEGGGVR (listed as Homo sapiens) [FPA-3]”: in data set [2], the “incubation time” value is listed as “at 30 min”; the “apparent rate constants” value was 1.6 h⁻¹; the half-lives worked out at 0.38 h. In addition, the “T1/2 (h) in Heparin” value in data set [2] (heparin plasma) is listed as 0.38 h.

Consider GLP-1: glucagon-like peptide-1, for which the “peptidase-induced degradation” value in data set [1] is “instability has been observed”.

Take “NGFKSHALQLNNRQIR-OH [C4, NGFKSHALQLNNRQIR]”: in data set [1], the “peptidase-induced degradation” value is “instability has been observed”.

For RPPGFSPFR [bradykinin], the “peptidase-induced degradation” value in data set [1] (blood samples, BNP, GLP-1, bradykinin data not shown) is given as “instability has been observed”.

As to “SGEGDFLAEGGGVR (listed as Homo sapiens) [FPA-2]”, in data set [2], the “incubation time” value is given as “Time 0”; the “apparent rate constants” value was 1.96 h⁻¹; the half-lives was 0.31 h. Also, the “T1/2 (h) in Heparin” value in data set [2] (heparin plasma) came out at 0.31 h.

In the case of “SSKITHRIHWESASLLR (listed as Homo sapiens) [C3f]”, the “peptidase-induced degradation” value in data set [1] is “instability has been observed”. In addition, in data set [1] (human), the “T1/2 (h) Citrate” value is 0.039 ± 0.01 h, the “T1/2 (h) EDTA” value was 0.082 ± 0.01 h and the “T1/2 (h) Heparin” value is on record as 0.075 ± 0.01 h. Also, in data set [1] (human, serum), the “T1/2 (h) Serum” value stood at 0.079 ± 0.01 h.
